Measurements as given in FireProtDB (doi:10.1006/jmbi.1998.1906).

Details: Homo sapiens, Thermal, DSC, glycine 0.05 M, reversible: yes, whole UniProt chain shown

B1: Lysozyme C wild type, P61626 (protein)
chain: MKALIVLGLVLLSVTVQGKVFERCELARTLKRLGMDGYRGISLANWMCLAKWESGYNTRATNYNAGDRSTDYGIFQINSRYWCNDGKTPGAVNACHLSCSALLQDNIADAVACAKRVVRDPQGIRAWVAWRNRCQNRDVRQYVQGCGV
pH 2.53
  Tm: 45.5 °C
  unfolding enthalpy (calorimetric): 75.4 kcal/mol
  unfolding enthalpy (van 't Hoff): 79.8 kcal/mol
pH 2.7
  Tm: 49.2 °C
  unfolding enthalpy (calorimetric): 82.5 kcal/mol
  unfolding enthalpy (van 't Hoff): 85.4 kcal/mol
pH 2.81
  Tm: 52 °C
  unfolding enthalpy (calorimetric): 85.9 kcal/mol
  unfolding enthalpy (van 't Hoff): 89.2 kcal/mol
pH 3.04
  Tm: 55.4 °C
  unfolding enthalpy (calorimetric): 91.6 kcal/mol
  unfolding enthalpy (van 't Hoff): 95 kcal/mol
pH 3.14
  Tm: 57.8 °C
  unfolding enthalpy (calorimetric): 96.4 kcal/mol
  unfolding enthalpy (van 't Hoff): 97.4 kcal/mol
